B1: NEUROD6 (parent)
chain: YHSPELTTPPGHGTLDNSKSMKPY

Variants of: B1
Assay: protein stability index of a GFP-peptide fusion (GPS, HEK-293T) (PSI 1-6); higher = more stable
Conditions: c terminus: a fixed tail appended
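Note: lentivirally expressed fusions sorted by FACS into six bins by GFP to DsRed ratio, PSI derived from sequencing read proportions per bin multiplied by bin number.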

Protein stability index, by site and new letter:
H12: G 2.48; S 1.96; L 2.29; W 1.43; Y 1.71; T 2.53; M 2.56; R 2.25; F 1.97; V 2.16; D 2.56; N 2.49; E 2.24; Q 2.21; A 2.16; I 2.01; C 2.25; P 2.25; K 2.18
D16: M 2.45; T 2.05; A 1.65; F 1.75; R 1.63; G 1.56; P 2.74; S 2.26; I 1.81; H 2.46; L 1.98; Y 2.05; N 2.27; V 2.18; C 2.66; K 1.86; Q 2.59; E 2.32; W 2.19
N17: G 2.68; C 1.69; L 1.72; W 2.51; Y 1.88; V 2.15; K 2.14; T 2.15; E 2.68; R 2.01; A 2.51; P 2.15; M 1.55; I 2.23; H 1.99; D 2.21; S 2.3; F 2.14; Q 2.52
P4: D 2.97; H 2.07; G 2.02; S 2.44; Y 1.68; L 1.95; Q 2.46; R 2.32; V 2.11; N 2.46; K 2.18; T 2.08; I 2.23; W 2.82; F 2.21; C 2.38; M 2.52; A 2.6; E 3.36
P9: M 1.8; N 2.24; V 1.95; I 2.35; T 2.32; K 2.45; W 1.94; S 2.22; F 1.63; E 2.58; Y 1.66; C 2.18; R 2.29; Q 2.22; D 2.78; H 3.09; A 2.04; L 2.64; G 2.03
K19: A 2.3
S3: N 1.56; K 3.71; R 3.04; F 1.86; L 2.19; D 2.82; I 2.89; Q 3.12; T 2.77; E 3.81; Y 2.02; M 1.94; C 2.33; A 2.15; V 3.42; W 2.52; G 3.46; H 2.44
T8: Y 2.11; D 3.14; G 2.47; E 3.34; R 2.35; V 2.04; H 2.15; I 2.12; C 2.01; W 1.84; A 2.17; L 2.1; M 1.92; N 2.52; K 2.37; F 2.43; S 2; Q 2.52
E5: W 2.56; M 1.98; Y 2.32; C 1.75; T 2.28; N 2.43; L 1.67; K 2.14; D 2.76; I 2.25; S 2.29; R 2.66; F 2.83; G 2.14; V 2.14; Q 2.34; A 2.71
G11: W 1.98; S 2.17; M 2.48; R 2.29; A 2.34; K 2.5; E 2.67; F 1.73; T 2.08; N 2.39; D 2.69; V 1.96; C 2.06; Q 2.28; Y 2.07; I 2.21; H 1.99; L 2.31
L6: I 2.63; R 4.02; H 3.28; T 3.28; K 4.08; S 3.13; F 2.85; C 2.81; N 3.25; W 2.97; E 3.86; A 2.58; M 2.33; Q 3.32; V 2.39; Y 1.5; D 4.05; G 3.05
L15: E 2.12; K 2.2; D 2.69; N 2.46; I 2.17; R 2; H 2.36; Q 2.77; V 2.26; F 1.77; M 1.9; G 2.24; S 2.35; W 1.82; T 3.01; C 2.1; Y 2.27; A 2.17
S18: D 2.06; H 2.04; T 2; A 2.09; V 2.38; C 1.81; L 1.74; F 1.81; Y 1.94; K 2.43; Q 2.22; G 2.39; M 1.76; E 2.16; I 1.95; P 2.17; W 1.8; N 2.54; R 2
P10: H 2.17; W 3.84; E 2.42; Y 1.96; R 2.3; C 1.9; F 2.03; M 1.88; D 2.74; I 1.67; Q 2.02; S 1.75; A 1.81; L 2.13; K 2.13; V 2.33; T 1.7; G 1.78; N 1.97
H2: V 2.25; I 2.17; C 3.23; F 4.01; A 3.41; Y 4.04; E 5.07; K 4.69; Q 3.15; P 4.29; N 4.71; S 4.53; M 4.18; G 4.41; D 4.75; L 3.17; T 3.61; W 3.91; R 4.14
G13: E 2.67; N 2.47; W 1.76; D 2.46; M 2.13; I 2.06; T 2.41; F 2.18; Y 2.07; K 2.35; L 2.14; Q 2.11; A 2.28; S 2.19; V 2.05; C 1.99; H 2.48; R 1.76
T14: E 2.51; M 2.33; A 2.44; L 1.86; S 2.25; W 2.37; N 3.02; I 1.9; Y 1.77; V 1.79; F 2.07; H 2.24; C 1.9; G 1.87; K 2.07; D 2.27; Q 1.6; R 2.07
T7: E 4.01; V 2.49; I 2.19; M 3.75; P 3.56; D 3.48; C 1.98; G 2.97; A 1.72; L 2.3; R 3.58; Y 2.55; N 2.84; Q 2.39; W 3.05; S 1.96; K 2.69; F 2.12; H 1.86
Y1: C 4.53; S 4.93; P 4.37; V 4.69; Q 5.06; E 5.28; F 2.7; R 4.99; A 5.09; D 5.05; M 4.74; I 4.77; K 4.93; T 4.76; L 4.96; W 4.53; N 4.94; H 4.62; G 4.91
